From paper PMC6638009 (Molecular Plant Pathology, 2018)

What was measured:
His-tagged PthXo1 = His-tagged PthXo1 (Xanthomonas oryzae pv. oryzae, UniProt B2SU53 1-1373); experiment: MST; […]; 50 mM Tris-HCl pH 7.8, 150 mM NaCl, 10 mM MgCl2, 0.05% Tween-20; 25°C; […]; conditions: both partners purified
His-tagged AvrXa27 = His-tagged AvrXa27 (Xanthomonas oryzae pv. oryzae, UniProt A0A0K0GNW2 1-1136); experiment: as above; conditions: both partners purified

B1: His-tagged Xa5 (OsTFIIAγ5), labelled with NT-647 (natural protein, rice (Oryza sativa), UniProt A2XZI2 1-106, looked up)
chain: MATFELYRRSTIGMCLTETLDEMVSSGTLSPELAIQVLVQFDKSMTEALENQVKSKVSIKGHLHTYRFCDNVWTFILTEASFKNEETTEQVGKVKIVACDSKLLSQ
modifications: amine-reactive red fluorescent dye NT-647
- Kd (His-tagged PthXo1): < 1000 nM
- Kd (His-tagged AvrXa27): < 1000 nM
